One molecule from article PMC6978347 can be followed below.

In the assay the target is polymerization-deficient p62^1–102 (D69A/D73A) (human) (UniProt Q13501). The assay can be described thus: ITC; VP-ITC, 25 °C, 10 mM HEPES pH 7.5, 150 mM NaCl; p62 D69A/D73A in the cell (5–20 μM), partner PB1 domain in the syringe (25–100 μM); one-site model; mean of three measurements.

B1: MEKK3^43–127 (MEKK3–PB1) (domain or fragment)
chain: SDVRIKFEHNGERRIIAFSRPVKYEDVEHKVTTVFGQPLDLHYMNNELSILLKNQDDLDKAIDILDRSSSMKSLRILLLSQDRNH
As for B1, the Kd is 26.8 nM.
